According to PMC8580825, “Scaffolding protein CcmM directs multiprotein phase separation in β-carboxysome biogenesis” (Nature Structural & Molecular Biology, 2021):
Changes are numbered by the printed parent chain.

T1: RbcL8 core complex of Rubisco (Synechococcus elongatus PCC 7942)
T1 chain: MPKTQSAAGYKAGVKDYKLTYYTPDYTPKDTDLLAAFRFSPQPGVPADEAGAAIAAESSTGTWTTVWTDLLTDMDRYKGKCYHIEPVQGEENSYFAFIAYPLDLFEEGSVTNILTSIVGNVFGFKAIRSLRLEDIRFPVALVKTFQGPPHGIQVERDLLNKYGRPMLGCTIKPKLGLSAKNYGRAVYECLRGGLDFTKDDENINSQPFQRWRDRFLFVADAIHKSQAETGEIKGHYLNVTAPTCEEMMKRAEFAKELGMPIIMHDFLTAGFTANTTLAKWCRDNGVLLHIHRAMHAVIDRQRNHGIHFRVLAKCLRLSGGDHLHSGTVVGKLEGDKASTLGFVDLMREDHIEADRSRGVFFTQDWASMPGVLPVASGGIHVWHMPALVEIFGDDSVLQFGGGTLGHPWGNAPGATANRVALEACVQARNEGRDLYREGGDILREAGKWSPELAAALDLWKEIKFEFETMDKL

T2: M58(R164D) (Synechococcus elongatus PCC 7942, UniProt Q03513 1-539, R164D)
T2 construct: CcmM (M58), Synechococcus elongatus PCC 7942, point mutant in the γCAL domain (head-to-head salt bridge); also called SeM58-R164D; M58oxR164D; source: E. coli BL21 (DE3), purified as wild-type M58; not shown: His6-ubiquitin, N-terminal, cleaved
T2 sequence (looked up): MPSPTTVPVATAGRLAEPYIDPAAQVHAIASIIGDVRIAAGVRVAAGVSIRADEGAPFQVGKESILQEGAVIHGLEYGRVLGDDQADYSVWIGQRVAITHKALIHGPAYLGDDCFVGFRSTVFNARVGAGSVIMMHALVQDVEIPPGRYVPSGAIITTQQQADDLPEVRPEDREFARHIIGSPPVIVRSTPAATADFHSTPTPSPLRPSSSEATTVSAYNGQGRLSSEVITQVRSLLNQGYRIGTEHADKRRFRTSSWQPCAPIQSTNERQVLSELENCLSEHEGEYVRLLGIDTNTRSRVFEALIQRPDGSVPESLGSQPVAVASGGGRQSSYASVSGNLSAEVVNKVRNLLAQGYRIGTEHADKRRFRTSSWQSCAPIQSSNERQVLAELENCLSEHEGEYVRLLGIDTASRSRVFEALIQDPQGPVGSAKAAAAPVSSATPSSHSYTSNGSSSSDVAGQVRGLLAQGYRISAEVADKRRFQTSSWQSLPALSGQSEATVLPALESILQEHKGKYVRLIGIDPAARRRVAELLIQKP

T3: M58(D172K) (Synechococcus elongatus PCC 7942, UniProt Q03513 1-539, D172K)
T3 construct: CcmM (M58), Synechococcus elongatus PCC 7942, point mutant in the γCAL domain (head-to-head salt bridge); also called SeM58-D172K; M58oxD172K; source: E. coli BL21 (DE3), purified as wild-type M58; not shown: His6-ubiquitin, N-terminal, cleaved
T3 sequence (looked up): T2 sequence (looked up) with D164R, D172K

B1: CcmM full-length protein M58 of Synechococcus elongatus PCC 7942 (natural protein, UniProt Q03513 1-539, looked up)
chain: T2 sequence (looked up) with D164R
notes: CcmM (M58, ~58 kDa), Synechococcus elongatus PCC 7942; full-length ccmM gene amplified from genomic DNA; SeCcmM (1-539); Used reduced (M58red, 5 mM DTT) or oxidized (M58ox, 2 mM H2O2; disulfides in SSUL modules); For microscopy labelled at the N terminus with Alexa532 and mixed 1:10 with unlabelled protein; also called SeM58; M58red; source: E. coli BL21 (DE3), purified (Ni-NTA, H6Ub cleaved with …)
B2: β-class carbonic anhydrase CcaA of Synechococcus elongatus PCC 7942 (enzyme, UniProt P27134 1-272, looked up)
chain: MRKLIEGLRHFRTSYYPSHRDLFEQFAKGQHPRVLFITCSDSRIDPNLITQSGMGELFVIRNAGNLIPPFGAANGGEGASIEYAIAALNIEHVVVCGHSHCGAMKGLLKLNQLQEDMPLVYDWLQHAQATRRLVLDNYSGYETDDLVEILVAENVLTQIENLKTYPIVRSRLFQGKLQIFGWIYEVESGEVLQISRTSSDDTGIDECPVRLPGSQEKAILGRCVVPLTEEVAVAPPEPEPVIAAVAAPPANYSSRGWLAPEQQQRIYRGNAS
notes: CcaA (~30 kDa), Synechococcus elongatus PCC 7942; ccaA gene amplified from genomic DNA; 272 residues (last 17 are 256-272); For microscopy labelled at the N terminus with Alexa405 and mixed 1:10 with unlabelled protein; also called CcaAAF4; source: E. coli BL21 (DE3), purified (Ni-NTA, H6Ub cleaved, SEC); not shown: His6-ubiquitin, N-terminal, cleaved
B3: γCAL-2S (domain or fragment, Synechococcus elongatus PCC 7942, UniProt Q03513 1-429, looked up)
chain: MPSPTTVPVATAGRLAEPYIDPAAQVHAIASIIGDVRIAAGVRVAAGVSIRADEGAPFQVGKESILQEGAVIHGLEYGRVLGDDQADYSVWIGQRVAITHKALIHGPAYLGDDCFVGFRSTVFNARVGAGSVIMMHALVQDVEIPPGRYVPSGAIITTQQQADRLPEVRPEDREFARHIIGSPPVIVRSTPAATADFHSTPTPSPLRPSSSEATTVSAYNGQGRLSSEVITQVRSLLNQGYRIGTEHADKRRFRTSSWQPCAPIQSTNERQVLSELENCLSEHEGEYVRLLGIDTNTRSRVFEALIQRPDGSVPESLGSQPVAVASGGGRQSSYASVSGNLSAEVVNKVRNLLAQGYRIGTEHADKRRFRTSSWQSCAPIQSSNERQVLAELENCLSEHEGEYVRLLGIDTASRSRVFEALIQDPQGPV
notes: C-terminal truncation of CcmM (M58), Synechococcus elongatus PCC 7942, with the γCAL domain and two SSUL modules, residues 1-429; also called SeγCAL-2S(1–429); γCAL-2Sox; source: E. coli BL21 (DE3), purified as M58; not shown: His6-ubiquitin, N-terminal, cleaved
B4: Rubisco holoenzyme (RbcL8S8) of Synechococcus elongatus PCC 7942 (complex)
chain 1: T1 chain
chain 2: MSMKTLPKERRFETFSYLPPLSDRQIAAQIEYMIEQGFHPLIEFNEHSNPEEFYWTMWKLPLFDCKSPQQVLDEVRECRSEYGDCYIRVAGFDNIKQCQTVSFIVHRPGRY

Tests used:
[1] = molecular target: CcmM full-length protein M58 of Synechococcus elongatus PCC 7942 (Synechococcus elongatus PCC 7942) (UniProt Q03513); assay: SEC-MALS; 2 mg/ml protein; 50 mM Tris-HCl pH 8.0/150 mM KCl or 50 mM Tris-HCl pH 8.0/500 mM KCl/5 mM DTT; 25 °C; oligomeric state in solution
[2] = molecular target: T1, RbcL8 core complex of Rubisco; assay: turbidity assay; 0.25 μM RbcL8 with M58red or M58ox at varied concentrations; M35red or M35ox with RbcL8 as controls; 50–200 mM KCl; conditions: both partners purified
[3] = molecular target: β-class carbonic anhydrase CcaA of Synechococcus elongatus PCC 7942 (Synechococcus elongatus PCC 7942) (UniProt P27134); assay: SEC-MALS; 2 mg/ml protein; 50 mM Tris-HCl pH 8.0/150 mM KCl or 50 mM Tris-HCl pH 8.0/500 mM KCl/5 mM DTT; 25 °C; oligomeric state in solution
[4] = molecular target: B1; assay: turbidity assay; absorbance at 340 nm, 25 °C, 50 mM Tris-HCl pH 8.0, 10 mM Mg(OAc)2; 0.5 μM CcaA or its mutants (0–1.25 μM for the apparent KD) with 0.5 μM M58 or its truncations and mutants, 0.75 μM γCAL198 or 2.25 μM M35; 100 mM KCl (50–400 mM in the salt series); reducing (5 mM DTT) or oxidizing; apparent; a protein alone: association of its oligomers into condensates; conditions: both partners purified
[5] = molecular target: T2, M58(R164D); assay: as above; conditions: both partners purified
[6] = molecular target: T3, M58(D172K); assay: as above; conditions: both partners purified
[7] = molecular target: the molecule itself; assay: turbidity assay; one protein alone (homodemixing: association of trimers into a homocondensate); 50 mM KCl; M58ox 0.5–3.0 μM, M58red 5 and 6 μM; truncations and point mutants oxidized at 3 μM; M58-C4S and CCTRIM35 at 5 μM; 25 °C
[8] = molecular target: B1; assay: turbidity assay; 0.25 μM Rubisco (RbcL8S8) with increasing M58red, M58ox, CCTRIM35red or CCTRIM35ox at 50 mM KCl; or with 0.25 μM M58, 0.25 μM CCTRIM35 or 0.75 μM M35 at 50 and 100 mM KCl; reducing or oxidizing; apparent; conditions: both partners purified

B1
stoichiometry N [1]: 3 | fold lower affinity than for the Rubisco holoenzyme [2]: ~4 fold

B2
stoichiometry N [3]: 4 | Kd [4]: ~200 nM | binding result [5]: binds | binding result [6]: binds

B3
binding result [7]: binds

B4
Kd [8]: ~70 nM
